Test results published in IntAct's records for PubMed 16369487.

B1: SPRY domain-containing SOCS box protein 2 (Mus musculus), O88838 (parent)
chain: MGQTALARGSSSTPTSQALYSDFSPPEGLEELLSAPPPDLVAQRHHGWNPKDCSENIDVKEGGLCFERRPVAQSTDGVRGKRGYSRGLHAWEISWPLEQRGTHAVVGVATALAPLQADHYAALLGSNSESWGWDIGRGKLYHQSKGLEAPQYPAGPQGEQLVVPERLLVVLDMEEGTLGYSIGGTYLGPAFRGLKGRTLYPSVSAVWGQCQVRIRYMGERRVEEPQSLLHLSRLCVRHALGDTRLGQISTLPLPPAMKRYLLYK
partner: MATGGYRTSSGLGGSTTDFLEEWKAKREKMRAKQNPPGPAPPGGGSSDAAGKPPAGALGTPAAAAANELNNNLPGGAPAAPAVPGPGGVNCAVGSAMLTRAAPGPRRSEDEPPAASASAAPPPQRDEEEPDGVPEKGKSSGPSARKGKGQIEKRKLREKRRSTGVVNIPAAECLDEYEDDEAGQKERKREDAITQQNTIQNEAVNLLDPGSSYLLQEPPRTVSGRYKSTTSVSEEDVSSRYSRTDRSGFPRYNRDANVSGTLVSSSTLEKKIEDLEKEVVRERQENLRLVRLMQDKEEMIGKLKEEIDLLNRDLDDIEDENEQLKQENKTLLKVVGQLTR

Variants of: B1
Details: with pawr_human PAWR

Row | Variant | effect of a mutation on the interaction
1 | MGQTALARGSSSTPTSQALYSDFSPPEGLEELLSAPPPDLVAQRHHGWNPKDCSENIDVKEGGLCFERRPVAQSTDGVRGKRGYSRGLHAWEISWPLEQRGTHAVVGVATALAPLQADHYAALLGSNSESWGWDIGRGKLYHQSKGLEAPQYPAGPQGEQLVVPERLLVVLDMEEGTLGYSIGGTYLGPAFRGLKGRTLYPSVSAAWGQCQVRIRYMGERRVEEPQSLLHLSRLCVRHALGDTRLGQISTLPLPPAMKRYLLYK [V206A] | disrupting interaction
2 | MGQTALARGSSSTPTSQALYSDFSPPEGLEELLSAPPPDLVAQRHHGWNPKDCSENIDVKEGGLCFERRPVAQSTDGVRGKRGYSRGLHAWEISWPLEQRGTHAVVGVATALAPLQADHYAALLGSNSESWGWDIGRGKLAAASKGLEAPQYPAGPQGEQLVVPERLLVVLDMEEGTLGYSIGGTYLGPAFRGLKGRTLYPSVSAVWGQCQVRIRYMGERRVEEPQSLLHLSRLCVRHALGDTRLGQISTLPLPPAMKRYLLYK [Y141A;H142A;Q143A] | disrupting interaction strength
3 | MGQTALARGSSSTPTSQALYSDFSPPEGLEELLSAPPPDLVAQRHHGWNPKDCSENIDVKEGGLCFERRPVAQSTDGVRGKRGYSRGLHAWEISWPLEQRGTHAVVGVATALAPLQADHYAALLGSNSESWGWDIGRGKLYHQSKGLEAPAAPAGPQGEQLVVPERLLVVLDMEEGTLGYSIGGTYLGPAFRGLKGRTLYPSVSAVWGQCQVRIRYMGERRVEEPQSLLHLSRLCVRHALGDTRLGQISTLPLPPAMKRYLLYK [Q151A;Y152A] | disrupting interaction strength
4 | MGQTALARGSSSTPTSQALYSDFSPPEGLEELLSAPPPDLVAQRHHGWNPKDCSENIDVKEGGLCFERRPVAQSTDGVRGKRGYSRGLHAWEISWPLEQRGTHAVVGVATALAPLQADHAAALLGSNSESWGWDIGRGKLYHQSKGLEAPQYPAGPQGEQLVVPERLLVVLDMEEGTLGYSIGGTYLGPAFRGLKGRTLYPSVSAVWGQCQVRIRYMGERRVEEPQSLLHLSRLCVRHALGDTRLGQISTLPLPPAMKRYLLYK [Y120A] | disrupting interaction
5 | MGQTALARGSSSTPTSQALYSDFSPPEGLEELLSAPPPDLVAQRHHGWNPKDCSENIDVKEGGLCFERRPVAQSTDGVRGKRGYSRGLHAWEISWPLEQRGTHAVVGVATALAPLQADHYAAAAASNSESWGWDIGRGKLYHQSKGLEAPQYPAGPQGEQLVVPERLLVVLDMEEGTLGYSIGGTYLGPAFRGLKGRTLYPSVSAVWGQCQVRIRYMGERRVEEPQSLLHLSRLCVRHALGDTRLGQISTLPLPPAMKRYLLYK [L123A;L124A;G125A] | disrupting interaction strength
6 | MGQTALARGSSSTPTSQALYSDFSPPEGLEELLSAPPPDLVAQRHHGWNPKDCSENIDVKEGGLCFERRPVAQSTDGVRGKRGYSRGLHAWEISWPLEQRGTHAVVGVATALAPLQADHYAALLGSNSESWGWDIGRGKLYHQSKGLEAPQYPAGPQGEQLVVPERLLVVLDMEEGTLGYSIGGTYLAAAFRGLKGRTLYPSVSAVWGQCQVRIRYMGERRVEEPQSLLHLSRLCVRHALGDTRLGQISTLPLPPAMKRYLLYK [G188A;P189A] | disrupting interaction strength
